Experimental data as given in the supplement of paper PMC10065799, “High-throughput profiling of sequence recognition by tyrosine kinases and SH2 domains using bacterial peptide display” (eLife, 2023).

Experiments:
AncSZ = experiment: phosphorylation enrichment, bacterial display (enrichment ratio); higher = better substrate or ligand; peptides without Tyr show the background
EPHB1 = EPHB1 (UniProt P54762); experiment: as above
EPHB2 = EPHB2 (UniProt P29323); experiment: as above
FGFR1 = FGFR1 (UniProt P11362); experiment: as above
FGFR3 = FGFR3 (UniProt P22607); experiment: as above
Fer (mouse) = experiment: as above
Fes = Fes (UniProt P07332); experiment: as above
Fyn = Fyn (UniProt P06241); experiment: as above
Hck = Hck (UniProt P08631); experiment: as above
Jak2 = Jak2 (UniProt O60674); experiment: as above
MERTK = MERTK (UniProt Q12866); experiment: as above
c-Abl (mouse) = experiment: as above
c-Src = experiment: as above
Grb2 SH2 = Grb2 SH2 (UniProt P62993); experiment: SH2 binding enrichment of the phosphorylated peptide, bacterial display (enrichment ratio); higher = better substrate or ligand; peptides without Tyr show the background
SHP2-C SH2 = experiment: as above
c-Src SH2 = experiment: as above
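Wherever SH2 binding enrichment of the phosphorylated peptide, bacterial display is given: peptide library displayed on the E. coli surface as eCPX fusions, selected cells deep-sequenced, score is each peptide's frequency after selection divided by its frequency in the input.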
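Wherever phosphorylation enrichment, bacterial display is given: 11-residue human phosphosite peptides and single-mutation variants displayed on the E. coli surface, counted by deep sequencing, each peptide's frequency after selection divided by its frequency in the unselected input library; frequency after pTyr selection over input frequency; kinase dosed for 20-30% of maximal phosphorylation in three min.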

Chain of Fes (P07332 whole entry, looked up): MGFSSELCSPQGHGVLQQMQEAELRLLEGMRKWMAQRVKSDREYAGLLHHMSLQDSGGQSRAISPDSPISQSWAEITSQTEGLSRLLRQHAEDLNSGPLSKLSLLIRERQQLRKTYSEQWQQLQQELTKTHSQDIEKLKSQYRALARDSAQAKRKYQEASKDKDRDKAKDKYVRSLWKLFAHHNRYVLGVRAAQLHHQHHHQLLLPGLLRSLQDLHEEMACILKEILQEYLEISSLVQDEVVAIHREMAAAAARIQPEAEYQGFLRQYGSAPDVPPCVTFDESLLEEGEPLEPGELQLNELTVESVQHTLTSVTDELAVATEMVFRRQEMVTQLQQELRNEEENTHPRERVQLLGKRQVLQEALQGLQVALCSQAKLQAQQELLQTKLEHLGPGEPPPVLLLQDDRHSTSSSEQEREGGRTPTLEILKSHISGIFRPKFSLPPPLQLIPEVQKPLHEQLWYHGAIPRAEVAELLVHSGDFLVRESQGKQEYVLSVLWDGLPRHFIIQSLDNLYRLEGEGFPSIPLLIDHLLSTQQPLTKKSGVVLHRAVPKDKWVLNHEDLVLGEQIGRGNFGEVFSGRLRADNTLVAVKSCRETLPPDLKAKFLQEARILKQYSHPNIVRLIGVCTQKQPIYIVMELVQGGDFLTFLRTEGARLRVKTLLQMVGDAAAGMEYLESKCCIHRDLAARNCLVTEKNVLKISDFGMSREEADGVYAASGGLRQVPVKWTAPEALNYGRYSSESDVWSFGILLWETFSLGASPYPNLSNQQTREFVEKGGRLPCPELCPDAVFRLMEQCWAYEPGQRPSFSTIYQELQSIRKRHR
Chain of Fyn (P06241 whole entry, looked up): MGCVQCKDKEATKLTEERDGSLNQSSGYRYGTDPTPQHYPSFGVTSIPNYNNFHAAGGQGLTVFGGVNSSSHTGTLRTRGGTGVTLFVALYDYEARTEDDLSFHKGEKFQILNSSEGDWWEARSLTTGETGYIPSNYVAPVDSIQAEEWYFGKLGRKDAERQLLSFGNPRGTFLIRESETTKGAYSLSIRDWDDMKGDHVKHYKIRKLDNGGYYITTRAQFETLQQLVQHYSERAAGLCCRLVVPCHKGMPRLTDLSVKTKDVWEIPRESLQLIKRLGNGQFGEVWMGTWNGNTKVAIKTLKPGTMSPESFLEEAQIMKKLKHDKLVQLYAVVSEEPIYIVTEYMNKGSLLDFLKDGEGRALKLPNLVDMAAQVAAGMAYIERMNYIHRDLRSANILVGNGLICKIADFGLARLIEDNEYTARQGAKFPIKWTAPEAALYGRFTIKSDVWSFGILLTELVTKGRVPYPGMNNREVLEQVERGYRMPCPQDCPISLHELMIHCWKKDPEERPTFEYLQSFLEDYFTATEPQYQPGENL
Chain of Hck (P08631 whole entry, looked up): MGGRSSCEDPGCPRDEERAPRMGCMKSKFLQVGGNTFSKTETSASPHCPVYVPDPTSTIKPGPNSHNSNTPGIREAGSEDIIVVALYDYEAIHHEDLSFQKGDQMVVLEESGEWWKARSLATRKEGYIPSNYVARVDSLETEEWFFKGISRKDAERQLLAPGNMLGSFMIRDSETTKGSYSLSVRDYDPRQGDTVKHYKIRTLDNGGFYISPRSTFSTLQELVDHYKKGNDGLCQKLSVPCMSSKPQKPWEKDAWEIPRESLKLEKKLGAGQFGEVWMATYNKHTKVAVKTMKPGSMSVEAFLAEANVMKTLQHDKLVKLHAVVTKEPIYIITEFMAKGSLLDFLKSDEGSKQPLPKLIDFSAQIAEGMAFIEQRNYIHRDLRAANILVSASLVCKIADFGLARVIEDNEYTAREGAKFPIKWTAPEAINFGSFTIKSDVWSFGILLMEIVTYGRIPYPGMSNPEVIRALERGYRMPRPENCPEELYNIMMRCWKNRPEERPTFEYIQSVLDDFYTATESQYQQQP
Chain of EPHB1 (P54762 whole entry, looked up): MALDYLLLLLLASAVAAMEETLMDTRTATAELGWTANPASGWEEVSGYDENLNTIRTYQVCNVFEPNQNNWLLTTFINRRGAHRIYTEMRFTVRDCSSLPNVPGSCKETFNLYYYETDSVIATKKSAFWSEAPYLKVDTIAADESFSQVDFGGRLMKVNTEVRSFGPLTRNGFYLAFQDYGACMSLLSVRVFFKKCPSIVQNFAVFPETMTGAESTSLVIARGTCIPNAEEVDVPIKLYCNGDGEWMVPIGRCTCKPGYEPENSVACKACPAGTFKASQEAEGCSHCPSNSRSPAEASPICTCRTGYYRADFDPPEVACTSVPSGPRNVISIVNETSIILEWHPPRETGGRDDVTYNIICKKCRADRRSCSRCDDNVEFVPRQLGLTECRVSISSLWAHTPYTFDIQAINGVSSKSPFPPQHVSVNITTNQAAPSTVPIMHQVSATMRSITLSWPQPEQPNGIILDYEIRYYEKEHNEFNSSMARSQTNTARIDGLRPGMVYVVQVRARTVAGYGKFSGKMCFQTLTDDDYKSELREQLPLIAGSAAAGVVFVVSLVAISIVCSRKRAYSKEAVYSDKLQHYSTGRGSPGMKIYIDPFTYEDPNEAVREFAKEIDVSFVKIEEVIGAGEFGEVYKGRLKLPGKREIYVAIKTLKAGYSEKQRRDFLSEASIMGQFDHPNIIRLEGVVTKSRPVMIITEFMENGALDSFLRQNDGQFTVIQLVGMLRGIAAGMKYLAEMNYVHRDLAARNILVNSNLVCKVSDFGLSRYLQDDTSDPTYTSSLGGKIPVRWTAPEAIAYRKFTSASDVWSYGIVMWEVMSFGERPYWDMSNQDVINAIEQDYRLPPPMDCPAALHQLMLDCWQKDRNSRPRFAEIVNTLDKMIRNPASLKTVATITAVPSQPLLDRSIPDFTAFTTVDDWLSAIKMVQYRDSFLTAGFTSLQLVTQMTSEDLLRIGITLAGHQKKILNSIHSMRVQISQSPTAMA
Chain of FGFR3 (P22607 whole entry, looked up): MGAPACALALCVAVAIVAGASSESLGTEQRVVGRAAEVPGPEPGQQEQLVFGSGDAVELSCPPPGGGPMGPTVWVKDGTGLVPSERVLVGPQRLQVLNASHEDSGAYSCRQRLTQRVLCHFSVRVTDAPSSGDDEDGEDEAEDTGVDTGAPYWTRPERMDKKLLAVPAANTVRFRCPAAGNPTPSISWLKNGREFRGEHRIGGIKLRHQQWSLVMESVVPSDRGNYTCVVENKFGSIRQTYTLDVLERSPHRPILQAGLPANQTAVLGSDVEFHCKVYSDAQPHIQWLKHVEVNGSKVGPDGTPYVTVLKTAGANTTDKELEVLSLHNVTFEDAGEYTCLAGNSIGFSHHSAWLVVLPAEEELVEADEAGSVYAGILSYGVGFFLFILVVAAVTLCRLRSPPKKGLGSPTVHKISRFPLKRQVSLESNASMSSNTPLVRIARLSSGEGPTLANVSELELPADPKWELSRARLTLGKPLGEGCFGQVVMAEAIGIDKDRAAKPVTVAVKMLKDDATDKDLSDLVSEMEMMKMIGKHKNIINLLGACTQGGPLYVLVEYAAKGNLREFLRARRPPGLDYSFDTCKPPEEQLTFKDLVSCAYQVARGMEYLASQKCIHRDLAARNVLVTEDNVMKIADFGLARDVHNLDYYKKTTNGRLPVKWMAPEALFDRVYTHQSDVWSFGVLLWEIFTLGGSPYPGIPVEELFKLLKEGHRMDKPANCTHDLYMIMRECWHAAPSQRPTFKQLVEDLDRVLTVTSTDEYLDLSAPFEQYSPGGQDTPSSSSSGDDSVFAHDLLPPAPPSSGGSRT
Chain of EPHB2 (P29323 whole entry, looked up): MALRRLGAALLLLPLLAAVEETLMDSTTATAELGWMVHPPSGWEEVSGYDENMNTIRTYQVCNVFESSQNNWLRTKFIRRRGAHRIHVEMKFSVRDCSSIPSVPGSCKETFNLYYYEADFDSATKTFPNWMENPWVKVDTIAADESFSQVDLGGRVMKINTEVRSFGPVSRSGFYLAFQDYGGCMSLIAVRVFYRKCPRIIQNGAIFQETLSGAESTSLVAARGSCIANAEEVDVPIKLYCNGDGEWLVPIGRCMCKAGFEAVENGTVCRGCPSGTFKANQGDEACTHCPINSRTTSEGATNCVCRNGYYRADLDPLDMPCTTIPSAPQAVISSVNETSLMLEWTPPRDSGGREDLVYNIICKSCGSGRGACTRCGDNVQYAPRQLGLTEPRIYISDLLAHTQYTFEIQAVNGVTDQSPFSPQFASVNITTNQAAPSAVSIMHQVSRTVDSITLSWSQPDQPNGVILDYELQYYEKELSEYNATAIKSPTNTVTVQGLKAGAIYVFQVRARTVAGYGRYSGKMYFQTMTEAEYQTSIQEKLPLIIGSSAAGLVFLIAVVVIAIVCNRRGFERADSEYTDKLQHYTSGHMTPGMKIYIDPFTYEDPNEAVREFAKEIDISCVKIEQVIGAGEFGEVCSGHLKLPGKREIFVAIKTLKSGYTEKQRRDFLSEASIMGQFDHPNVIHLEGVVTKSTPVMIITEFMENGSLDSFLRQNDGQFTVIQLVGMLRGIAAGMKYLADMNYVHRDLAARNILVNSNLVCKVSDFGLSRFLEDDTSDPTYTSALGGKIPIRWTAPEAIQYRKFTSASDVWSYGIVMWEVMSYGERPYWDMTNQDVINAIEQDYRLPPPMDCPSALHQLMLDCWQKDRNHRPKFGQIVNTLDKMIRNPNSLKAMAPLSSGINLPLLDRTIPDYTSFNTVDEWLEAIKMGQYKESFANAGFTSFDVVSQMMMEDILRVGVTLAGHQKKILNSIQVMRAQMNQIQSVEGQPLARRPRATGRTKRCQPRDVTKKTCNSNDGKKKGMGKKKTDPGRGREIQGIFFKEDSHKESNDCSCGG
Chain of Grb2 SH2 (P62993 whole entry, looked up): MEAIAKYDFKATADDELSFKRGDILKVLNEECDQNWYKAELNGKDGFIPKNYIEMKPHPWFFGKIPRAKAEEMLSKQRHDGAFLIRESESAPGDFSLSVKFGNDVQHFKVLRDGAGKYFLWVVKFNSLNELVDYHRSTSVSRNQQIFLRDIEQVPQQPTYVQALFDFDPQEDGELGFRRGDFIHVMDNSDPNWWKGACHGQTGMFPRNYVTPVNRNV

Sequence | phosphorylation enrichment (AncSZ) | phosphorylation enrichment (EPHB1) | phosphorylation enrichment (EPHB2) | phosphorylation enrichment (FGFR1) | phosphorylation enrichment (FGFR3) | phosphorylation enrichment (Fer (mouse)) | phosphorylation enrichment (Fes) | phosphorylation enrichment (Fyn) | phosphorylation enrichment (Hck) | phosphorylation enrichment (Jak2) | phosphorylation enrichment (MERTK) | phosphorylation enrichment (c-Abl (mouse)) | phosphorylation enrichment (c-Src) | SH2 binding enrichment (Grb2 SH2) | SH2 binding enrichment (SHP2-C SH2) | SH2 binding enrichment (c-Src SH2)
SVVAPYEPPEV [TP53_Y220_V218A] | 1.34 | 0.629 | 0.617 | 0.528 | 0.753 | 0.578 | 1.48 | 0.67 | 0.624 | 1.1 | 0.629 | 1.08 | 0.672 | 0.903 | 0.59 | 0.762
SVVVPFEPPEV [TP53_Y220_Y220F] | 1.04 | 0.578 | 0.628 | 0.533 | 0.668 | 0.467 | 1.22 | 0.41 | 0.502 | 1.06 | 0.39 | 0.866 | 0.552 | 0.807 | 0.537 | 0.469
SWKRRYFLLWA [APBB1IP_Y331_R335W] | 0.686 | 0.443 | 0.5 | 0.479 | 0.545 | 0.433 | 0.591 | 0.576 | 0.497 | 0.571 | 0.59 | 0.478 | 0.661 | 0.684 | 0.646 | 0.428
SWSTSYSGFRC [NKAPL_Y91_Y96C_YF] | 0.985 | 0.616 | 0.597 | 0.528 | 0.763 | 0.531 | 1.1 | 0.643 | 0.642 | 0.877 | 0.424 | 0.761 | 0.972 | 0.87 | 0.57 | 0.43
SYDLDYDSVQP [MYC_Y16_N11S] | 2.5 | 1.03 | 1.73 | 0.589 | 0.862 | 0.995 | 1.21 | 0.723 | 0.762 | 1.04 | 0.443 | 0.741 | 0.796 | 0.804 | 0.633 | 1.19
TAALWYIFSHT [ENG_Y612_YF] | 1.26 | 0.733 | 0.593 | 0.543 | 1.03 | 0.496 | 1.5 | 0.514 | 0.536 | 1.36 | 0.491 | 1.19 | 0.722 | 1.02 | 0.785 | 0.713
TARWEYMHSPS [CPOX_Y429] | 0.927 | 0.965 | 0.624 | 0.536 | 0.69 | 0.334 | 2.01 | 0.387 | 0.356 | 1.23 | 1.08 | 0.363 | 1.14 | 1.25 | 0.778 | 0.688
TDTAAYEERVR [SPTB_Y474] | 0.931 | 0.692 | 0.767 | 0.581 | 0.494 | 0.407 | 1.25 | 0.795 | 0.686 | 1.9 | 1.2 | 1.2 | 0.753 | 0.937 | 0.677 | 0.672
TENAGYFFRIS | 1.52 | 0.733 | 0.703 | 0.511 | 0.868 | 0.487 | 1.42 | 0.511 | 0.548 | 1.46 | 0.388 | 0.925 | 0.514 | 0.753 | 0.593 | 0.432
TFGVVYKARNK [CDK2_Y19_YF] | 0.928 | 0.439 | 0.518 | 0.587 | 0.694 | 0.481 | 0.917 | 0.422 | 0.39 | 0.805 | 0.321 | 0.565 | 0.346 | 0.801 | 0.671 | 0.495
TFLRTYTDAMQ [TSPAN7_Y124] | 0.791 | 0.51 | 0.488 | 0.438 | 0.548 | 0.379 | 0.813 | 0.396 | 0.506 | 0.726 | 0.37 | 0.552 | 0.413 | 0.761 | 0.864 | 0.846
TFRPPYYHRNC [HGD_Y333] | 0.721 | 0.506 | 0.474 | 0.497 | 0.486 | 0.375 | 0.878 | 0.562 | 0.524 | 0.686 | 0.498 | 0.599 | 0.559 | 1.38 | 1.86 | 1.18
THLAPYSDELR [APOA1_Y190] | 0.722 | 0.51 | 0.582 | 0.46 | 0.594 | 0.442 | 0.968 | 0.51 | 0.481 | 0.688 | 0.467 | 0.521 | 0.434 | 0.723 | 0.909 | 0.437
TIQMMYGCDVG [HLA-A_Y123_I121M] | 1.22 | 0.718 | 0.555 | 0.561 | 0.987 | 0.532 | 1.38 | 0.525 | 0.501 | 1.31 | 0.408 | 0.822 | 0.513 | 0.845 | 0.575 | 0.414
TLGPFYPSRLF [CRYAA_Y18] | 0.795 | 0.47 | 0.493 | 0.581 | 0.586 | 0.464 | 0.784 | 0.459 | 0.428 | 0.668 | 0.43 | 0.63 | 0.44 | 1.17 | 1.13 | 0.717
TLQVMYGCDVG [HLA-B_Y123_S121V] | 1.1 | 0.564 | 0.56 | 0.596 | 0.862 | 0.509 | 1.23 | 0.508 | 0.593 | 1.1 | 0.56 | 0.849 | 0.589 | 0.941 | 0.883 | 0.515
TNIKRYHIAKV [HARS1_Y150] | 0.408 | 0.301 | 0.322 | 0.301 | 0.328 | 0.278 | 0.553 | 0.379 | 0.264 | 0.43 | 0.358 | 0.375 | 0.348 | 0.967 | 0.986 | 0.81

Sequence | phosphorylation enrichment (AncSZ) | phosphorylation enrichment (EPHB1) | phosphorylation enrichment (EPHB2) | phosphorylation enrichment (FGFR1) | phosphorylation enrichment (FGFR3) | phosphorylation enrichment (Fer (mouse)) | phosphorylation enrichment (Fes) | phosphorylation enrichment (Fyn) | phosphorylation enrichment (Hck) | phosphorylation enrichment (Jak2) | phosphorylation enrichment (MERTK) | phosphorylation enrichment (c-Abl (mouse)) | phosphorylation enrichment (c-Src) | SH2 binding enrichment (Grb2 SH2) | SH2 binding enrichment (SHP2-C SH2) | SH2 binding enrichment (c-Src SH2)
TQFWRYFAGNL [SLC25A5_Y112_L111R] | 0.918 | 0.6 | 0.589 | 0.494 | 0.655 | 0.351 | 1.05 | 0.509 | 0.493 | 0.951 | 0.433 | 1.55 | 0.489 | 0.977 | 0.894 | 0.545
TSGVVYKARNK [CDK2_Y19_Y15S] | 0.53 | 0.392 | 0.358 | 0.354 | 0.447 | 0.519 | 0.661 | 0.359 | 0.462 | 0.427 | 0.479 | 0.51 | 0.516 | 0.742 | 0.866 | 0.565
TSNQEYLDVSM [FGFR1_Y766_L769V] | 1.15 | 0.866 | 0.681 | 1.24 | 1.05 | 0.561 | 1.06 | 0.504 | 0.56 | 0.958 | 0.441 | 0.684 | 0.415 | 0.811 | 0.696 | 0.567
TSYQMYDKGLV [IARS2_Y231_F227S] | 0.986 | 0.468 | 0.665 | 0.496 | 0.568 | 0.405 | 0.769 | 0.604 | 1.13 | 0.957 | 0.463 | 0.432 | 0.54 | 0.999 | 0.759 | 0.672
TTPAVYARVAK [CTRB2_Y246] | 0.49 | 0.594 | 0.505 | 0.436 | 0.436 | 0.383 | 0.583 | 1.28 | 2.77 | 0.464 | 0.529 | 1.04 | 2.23 | 0.897 | 2.3 | 2.12
TVSRPYSFIEF [SEC22B_Y110] | 0.746 | 0.527 | 0.403 | 3.02 | 2.19 | 11.3 | 1.12 | 0.993 | 0.705 | 0.848 | 6.03 | 0.639 | 3.15 | 0.891 | 26.3 | 19.8
TVSTGYTQPQP [SARG_Y259_R258G] | 0.675 | 0.378 | 0.374 | 0.523 | 0.629 | 0.513 | 0.64 | 0.442 | 0.47 | 0.508 | 0.371 | 0.511 | 0.479 | 0.633 | 0.68 | 1.53
TYEPNYGTVKQ [RAPGEF6_Y1447] | 0.864 | 1.54 | 5.21 | 0.553 | 0.659 | 2.44 | 0.667 | 2.21 | 1.66 | 0.47 | 0.644 | 1.2 | 1.44 | 0.748 | 0.696 | 0.556
TYEPNYGTVKR [RAPGEF6_Y1447_Q1452R] | 0.567 | 1.34 | 3.31 | 0.391 | 0.43 | 1.65 | 0.614 | 4.41 | 3.66 | 0.604 | 0.868 | 0.656 | 3.06 | 0.803 | 0.785 | 0.589
VATRWYQSPEL [CDKL5_Y177_R178Q] | 1 | 0.508 | 0.774 | 0.88 | 0.754 | 0.531 | 0.832 | 0.43 | 0.578 | 0.566 | 0.679 | 0.512 | 0.443 | 0.983 | 0.955 | 1.16
VATRWYWSPEL [CDKL5_Y177_R178W] | 1.06 | 4.61 | 3.81 | 5.92 | 5.13 | 0.512 | 1.15 | 0.464 | 0.532 | 1.14 | 6.3 | 0.771 | 0.647 | 0.971 | 0.731 | 1.94
VCDSDYSASRW [LRP5_Y1552] | 1.16 | 0.691 | 0.877 | 0.449 | 0.684 | 0.455 | 1.02 | 0.603 | 0.518 | 0.731 | 0.382 | 0.737 | 0.518 | 0.979 | 0.697 | 0.586
VDLIVYLRTNP [TK2_Y181] | 1.12 | 0.65 | 0.589 | 0.358 | 0.711 | 0.432 | 1.26 | 0.434 | 0.352 | 1.06 | 0.328 | 0.875 | 0.364 | 0.709 | 0.623 | 0.468
VEFAKYGSLQG [RET_Y809_R813Q_YF] | 0.663 | 0.536 | 0.471 | 0.43 | 0.578 | 0.44 | 0.9 | 0.556 | 0.741 | 0.846 | 0.384 | 0.619 | 0.546 | 0.745 | 0.803 | 0.382
VGTKRYMALEV [ACVRL1_Y375_P378L] | 0.691 | 0.549 | 0.451 | 0.472 | 0.541 | 0.418 | 0.75 | 0.429 | 0.458 | 0.557 | 0.448 | 0.709 | 0.486 | 0.977 | 0.805 | 0.813
VGTKRYMAPDV [ACVRL1_Y375_E379D] | 0.424 | 0.42 | 0.402 | 0.296 | 0.412 | 0.35 | 0.491 | 0.306 | 0.334 | 0.415 | 0.277 | 0.494 | 0.293 | 0.573 | 0.522 | 0.496
